For this experiment, the target named is HLA-A*0201. Put plainly: T2 stabilization assay (BB7.2 anti-HLA-A2 staining). The conditions noted are these: peptide-pulsed T2 cells; parent: est. 100; read off a plot.
With wild type p53 65-73 peptide (…) A5G, the percent of parent is 100%. Consider wild type p53 65-73 peptide (…) A6G, for which the percent of parent was found to be 68%.

Regarding wild type p53 65-73 peptide (…) E4A, the percent of parent was found to be 76%.

As to wild type p53 65-73 peptide (…) E4G, the percent of parent was determined as 100%.

Turning to wild type p53 65-73 peptide (…) M2A, the percent of parent was found to be 89%. Under wild type p53 65-73 peptide (…) M2G stands 89%; under wild type p53 65-73 peptide (…) P3A, 61%; under wild type p53 65-73 peptide (…) P3G, 65%. Take wild type p53 65-73 peptide (…) P7A: the percent of parent stood at 84%. On to wild type p53 65-73 peptide (…) P7G, for which the percent of parent came to 47%. wild type p53 65-73 peptide (…) P8A: the percent of parent came to 89%. On to wild type p53 65-73 peptide (…) P8G, for which the percent of parent came to 72%. Take wild type p53 65-73 peptide (…) R1A: the percent of parent was 120%. In the case of wild type p53 65-73 peptide (…) R1G it was 100%. In the case of wild type p53 65-73 peptide (…) V9A it was 110%. Turning to wild type p53 65-73 peptide (…) V9G, the percent of parent was found to be 67%.

The values are drawn from PMC8034716.
